In the nanobody polyreactivity screen of Harvey et al. (2022):

Experiment: yeast display, Sf9 membrane polyspecificity reagent, FACS + sequencing; frameworks hold sequencing errors
Method in brief: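 Sorting gates, low and high (top ~1%), were placed on anti-HA fluorescence to track expression and on streptavidin fluorescence to track reagent binding. A clone's polyreactivity label is taken from the gate it came out of. The reagent was 10% biotinylated, detergent-solubilized Sf9 membrane, applied for 1 hour at 4 °C to galactose-induced yeast display cells.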

Sequence: QVQLVESGGGLVQAGGRLRFSCAASGSIFEYYTMGWYRQAPGKERELVAAISDGGSTYYADSVKGRFTISRDNAKNTVYLQMNSLKPDDTAFYYCAAEYQQDFWVAVDYWGQGTQLTVSS
- polyreactivity (PSR sort gate): low polyreactivity

Sequence: QVQLVESGGRLVQAGGSLRLSCAASGRTFLHNAMGWYRQAPGKERELVAAIDSGGTTHYADSVKGRFTISRDNAKNTVYLQMNSLKPEDTAVYNCAARPTRGHWWYGNWGQGTQVTVTS
- polyreactivity (PSR sort gate): low polyreactivity

Sequence: QVQLVESGGGLVQAGGSLRLSCAASGYIFRYYAMGWYRQAPGKERELVAAISRSGGNTYYADSVKGRFTISRDNAKNTVYLQMNSLKPEDTAVYYCAVVLSTYSYADYDYWGQGTQVTVSS
- polyreactivity (PSR sort gate): high polyreactivity

Sequence: QVQLVESGGGLVHAGGSLRLSCAASGSIFNYYAMGWYRQAPGKERELVAAISYGTGSTYYADSVKWRFTISRDNAKNTDYLQMNSLKPEDTAVYYCAADTRYGYGYWGQGTQVTVSS
- polyreactivity (PSR sort gate): high polyreactivity

Sequence: QVQLVKSGGGLVQAGGSLRLSCAASRFIIPEYTMGWYRQAPGKARELVAAISGSGGSTYYADSVKGRFTISRDNAKHTVYLQMNSLKPEDTAVYYCATAFIVPFPGSDYWGQGTQVTVSS
- polyreactivity (PSR sort gate): low polyreactivity

Sequence: QVQLVESGGGLVQAGGSLRLSCAASGSIYAINVMGWYRQAPGKERDFDAAISVRSGSTYYADSVKGRITISRDNAKNTVYLQMNSLKPEDTAVIYCAARTSRFWRGGGLDYWGQGTQVTGSS
- polyreactivity (PSR sort gate): high polyreactivity

Sequence: QVQLVESGGGLVQAGGSLRLSCAASGSIFYKYAMGWYRQAPGKERELVAAISGSGGRTYYADSVKGRFTISRDNAKNTVYLQMNSLKPEDTAVYYCAAAKRTWRSDYWGQGTQVTVSS
- polyreactivity (PSR sort gate): high polyreactivity

Sequence: QVQLVESGGGLVQAGGSLRLSCAASGSIFEIYDMGWYRQAPGKERELVASITWSGGSTYYADSVKGRFTISRDNAKNTVYLQMNSLKPEDTAVYYCATDKLYGRTVRMDYWGQGTQVSVSS
- polyreactivity (PSR sort gate): low polyreactivity

Sequence: QVQLVESGGGLVQAGGSLRLSCAASGRTISRNTMGWYRQAPGKERELVAGITYGGDRTYYADSVKGRFTISRDNAKNTVYLQMNSLKPEDTAVYYCAAPWYWKGLRDYWGQGTQVNVSS
- polyreactivity (PSR sort gate): low polyreactivity

Sequence: QVQLVESGGGLVQAGGSLRLSCAASGSIFKYYTIGWYRQAPGKERELVAAISWSGGRTYYADSVKGRFTISRDIAKNTVYLQMNSLKPEDTAVYYCAKYVSYSRTLYDYWGQGTKVTVSS
- polyreactivity (PSR sort gate): high polyreactivity

Sequence: QGQLVESGGGLVQAGGSLRLSCAASGSTFYIYAMGWYRQAPGKERELVARISGSGGSTYYADSVKGRFTISRDNAKNTVYLQMNSLKPEDTAVYYCAADDIYKYYQYYAFPYYRYDYWGQGTQVTVSS
- polyreactivity (PSR sort gate): low polyreactivity

Sequence: QVQLVESGGGLVQAGGSLRLSCAASGLIFPYYAMGWYRQAPGKERELVAAISYRGSRTYYADSVKGRFTISRDNAKNTVYLQMNSLKPEDTAVYYCIAGVSGRDNYWGQGTQVNVSS
- polyreactivity (PSR sort gate): high polyreactivity

Sequence: QVQLVESGGGLVQAGGSLRLSCAASVSTFAPNAMGWYRQAPGKEMELVASIRRGGSTHYADSVKGRFTISRDNAKNTVYLQMNSLQPEDTAVYYCAAEFRDVSSNGYDYWGQGTQVTVSS
- polyreactivity (PSR sort gate): low polyreactivity

Sequence: QVQLVESGGGLVQAGGSLRLSCAASGRIFNPNGMGWYRQAPGKERELVAVITRSGTSTYADSVKGRFTISRDNAKNTVYLQMNSLKPEDTAVYYFATRYRWTPYDYWGQGTQVTVSS
- polyreactivity (PSR sort gate): low polyreactivity

Sequence: QVQLVESGGGLVQAGGSLRLSCAASGRIFPGYAMGWYRQAPGKERELVASIRWSGDSTYYADSVKGRFTISRDNAKNTVYLQMNSLKPEDTAVYYCNRRWYRGDYWGQGTQVTVSS
- polyreactivity (PSR sort gate): low polyreactivity

Sequence: QVQLVDSGGGLVQAGGSLRLRCAASGRNFGTNAMGWYRPAPGKERELVATITRGGGNTYYADSVKGRFTISRDNAKNTVYLQMNSLKPEDTAVYYCAAGVIFYVGTRVYAYDYWGQGTQLTVSS
- polyreactivity (PSR sort gate): low polyreactivity

Sequence: QVQLVESGGGLVQAGGSLRLSCAASGRIFDYNTMGWYRQAPGKERELVAAITGGTGSTYYADSVKGRFTISRDNAKNTVYLQMNSLKPEDTAVYYCAAGFHKRVTPEILYDYWGQGTQVTVSS
- polyreactivity (PSR sort gate): low polyreactivity

Sequence: QVQLVESGGGLVQAGGSLRLSCAASGIIFGSNTMGWYRQAPGKERELVAAITSSDGSTHYADSVKGRFTISRDNAKNTVYLQMKSLKPEDTAVYYCAARKVTYGHSYGYDYWGQGTQVTLSS
- polyreactivity (PSR sort gate): low polyreactivity

Sequence: QDQLVESGGGLVQAGGSLRLSCDASGYIFQSNVLGWYRQAPGKERELVAAITVSGGSTYYADSVKGRFTISRDNAKNTVYLQMNSLKPEDTAVYYCAALVAHKGDYWGQGTQVTVSS
- polyreactivity (PSR sort gate): high polyreactivity

Sequence: QVQLVESGGGLVQAGGSLRLSCAASGRIFSLYAMGWYRQAPGKERELDAAITWSSGSTYYADSVKGRFTISRDNAKNTVYLQMNSLKPEDTAVYYCAARVFTLLGYSFEYWGQGTQVTVSS
- polyreactivity (PSR sort gate): low polyreactivity

Sequence: QVQLVESGGGLVQAGGSLRLSCAASGFILDTYGMGWYRQAPGKERELVAAISQSDVSTYYADSVKGRFTISRDNAKNTVSLQMNSLKPEDTAVYYCAADRAGLRWFWQLLYDYWGQGTQVTVSS
- polyreactivity (PSR sort gate): low polyreactivity

Sequence: QVQLVESGGGLVQAGGSLRLSCAASGRIFWYYAIGWYRQAPGKEREIVAAISRSGGTTYYADSVKGRFTISRDNAKNTVYLQMNSLKPEDTAVYYCAAVYHAYTGYEAWYEYDYWGQGTQVTVSS
- polyreactivity (PSR sort gate): high polyreactivity
